The results in this text go back to publication PMC5601083.

In this series the target is T1, RbsR (Serratia sp. ATCC39006) (UniProt A0A2I5T2K0).
T1 sequence: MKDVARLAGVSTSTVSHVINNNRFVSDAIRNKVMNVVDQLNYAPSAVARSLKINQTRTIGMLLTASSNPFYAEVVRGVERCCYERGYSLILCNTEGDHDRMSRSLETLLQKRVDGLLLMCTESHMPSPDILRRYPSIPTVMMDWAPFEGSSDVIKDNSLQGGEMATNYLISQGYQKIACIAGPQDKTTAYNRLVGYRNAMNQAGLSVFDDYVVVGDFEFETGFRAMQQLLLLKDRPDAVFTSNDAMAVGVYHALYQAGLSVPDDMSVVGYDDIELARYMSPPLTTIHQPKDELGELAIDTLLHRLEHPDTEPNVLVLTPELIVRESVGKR
Put plainly: EMSA. Conditions: complete band shift at 14 nM RbsR (protein:DNA 2.8:1); 10% glycerol, 10 mM Tris pH 8.0, 1 mM DTT, 10 mM KCl, 0.5 mM EDTA, BSA (printed 20 ug m-1), 5 nM probe, 30 min on ice; 7.5% native gel in TGE at 4 C.

For rbsD upstream probe (LUEGO), the binding is 14 nM.
